Tests used:
[1] = target: 33‐mer gliadin peptide (wheat); assay: surface tension (Wilhelmy plate); titration of freshly filtered (220 nm cut-off) peptide into the subphase, nanomolar range, 22 °C; critical concentration of aggregation
[2] = target: 33‐mer gliadin peptide (wheat); assay: other fluorescence titration; intrinsic Tyr steady-state fluorescence anisotropy against peptide concentration (100-600 μM), stabilised aqueous solution pH 6.5, 25 °C, excitation 280 nm, emission 305 nm; simple one-to-one binding model; step: association of oligomers into the larger structures

critical concentration of aggregation (CAC) [1]: 75 nM
Kd [2]: 165 µM
Substance: 33‐mer gliadin peptide

— article PMC9828358
